In patent US7476386B1 (priority 1997, dated 2009):
Ends that are not written are not given here. * marks the point of attachment. Palmitoyl = CCCCCCCCCCCCCCCC(=O)*

Tests used:
Type in all cases: physicochemical
[1] = Test of uniformity of concentration on batch CK9; details: batch CK9, 15 random samples, each injected three times
Description: According to the Pharmacopoeia, powders for parenteral use are subjected to a requirement of uniformity of concentration. The test must be performed on 10 random samples, which are analysed individually for the active ingredient using an appropriate analytical method. The preparation satisfies the test if the concentration of each sample is between 85 and 115% of the average concentration.
The test was performed on 15 random samples, taken up in solution and diluted in 80% acetic acid according to a standardized operational procedure, so as always to inject an identical proportion of about 15 μg, defined during preparation of the calibration curve. Each sample was injected three times, the concentration of each active ingredient corresponding to the average of the three values obtained.

[2] = Sterilizing filtration (0.22 μm) of lipopeptide mixtures; details: for yield (%): batch CK9, 20 mg/ml in 80% acetic acid, filtered 0.22 μm, range reflects precision of determination
Description: The solutions obtained were subjected to ultrasonic action to encourage the dispersion of the aggregates, mixed to give a final volume of 5.5 ml, and the mixture was again subjected to ultrasonic action, then diluted with 9.5 ml of water to obtain a final concentration of about 8% in acetic acid (AcOH), compatible with a good quality freeze-drying. This solution, after a final period in the ultrasonic bath, was filtered over Millipore Millex GV SLGV 0130S filters (0.22 μm).
An ultrasonic step was used at each stage to ensure effective dispersion of the aggregates.
The solutions were mixed, then filtered over Millex GV SLGV 0130S filters (0.22 μm). […] The receiver vessels and the filter were then rinsed with water, in sufficient quantity to give a final acetic acid concentration of 8% (final volume 15 ml as before), so as to ensure the quality of the freeze-drying step.
The procedure used was the same as for the previous batch, apart from the quantities. The solution of the peptide (20 mg/ml in 80% acetic acid) was filtered in 4 portions, changing the filter before its saturation, using identical membranes (Durapore STERIVEX GV 0.22 μm sterile units (Millipore)), then made up with the water used for rinsing the filters and for dilution. The final volume was 1516 ml (including 154 ml of acetic acid: 10% in final solution). The portion volume was 1.3 ml per dose. The apportioned doses were freeze-dried, and analysed using a validated HPLC determination method.
This set of peptides was synthesized as described in the previous examples.
This set of peptides was synthesized as described in example 1. The mixture of solutions was performed on a sample of 5 mg of each peptide previously dissolved at a concentration of 20 mg/ml in 80% acetic acid then mixed in the following order: 1: LSA3 NRI; 2: LSA3 NRII; 3: LSA3 CT1; 4 LSA3 RE.

[3] = Solubility of the lipopeptides in pure water
[4] = batch CK2, simple mixture diluted to about 8% acetic acid, 0.22 μm filter
[5] = batch CK3, each lipopeptide in 80% acetic acid, mixed then filtered 0.22 μm

| Substance | Observed deviation [1] [%] | Filtration yield (%) after mixing [2, 4] [%] | Filtration yield (%) after mixing [2, 5] | yield (%) [2] | appearance of the solution in pure water [3] |
| --- | --- | --- | --- | --- | --- |
| VGFPVTPQVPLRPMTYKAAVDLSHFLKEKGGLK(Pam)-NH2 [NEF 66] | 4.23 | 95 | quantitative | 89.14-94.6% |  |
| TRPNNNTRKSIHIGPGRAFYATGEIIGDIRQAHK(Palmitoyl)-NH2 [ENV] | 14.95 | 95 | quantitative | 104.71-110.89% |  |
| EWRFDSRLAFHHVARELHPEYFKNK(Pam)-NH2 (EWRFDSRLAFHHVARELHPEYFKNK(Palmitoyl)-NH2; N-terminus assumed; SMILES CCCCCCCCCCCCCCCC(=O)NCCCC[C@H](NC(=O)[C@H](CC(N)=O)NC(=O)[C@H](CCCCN)NC(=O)[C@H](Cc1ccccc1)NC(=O)[C@H](Cc1ccc(O)cc1)NC(=O)[C@H](CCC(=O)O)NC(=O)[C@@H]1CCCN1C(=O)[C@H](Cc1c[nH]cn1)NC(=O)[C@H](CC(C)C)NC(=O)[C@H](CCC(=O)O)NC(=O)[C@H](CCCNC(=N)N)NC(=O)[C@H](C)NC(=O)[C@@H](NC(=O)[C@H](Cc1c[nH]cn1)NC(=O)[C@H](Cc1c[nH]cn1)NC(=O)[C@H](Cc1ccccc1)NC(=O)[C@H](C)NC(=O)[C@H](CC(C)C)NC(=O)[C@H](CCCNC(=N)N)NC(=O)[C@H](CO)NC(=O)[C@H](CC(=O)O)NC(=O)[C@H](Cc1ccccc1)NC(=O)[C@H](CCCNC(=N)N)NC(=O)[C@H](Cc1c[nH]c2ccccc12)NC(=O)[C@@H](N)CCC(=O)O)C(C)C)C(N)=O) [NEF 182] | 5.84 | 92 | quantitative | 96.23-102.05% |  |
| TQGYFPDWQNYTPGPGVRYPLTFGWCYKLVPK(Pam)-NH2 (TQGYFPDWQNYTPGPGVRYPLTFGWCYKLVPK(Palmitoyl)-NH2; N-terminus assumed; SMILES CCCCCCCCCCCCCCCC(=O)NCCCC[C@H](NC(=O)[C@@H]1CCCN1C(=O)[C@@H](NC(=O)[C@H](CC(C)C)NC(=O)[C@H](CCCCN)NC(=O)[C@H](Cc1ccc(O)cc1)NC(=O)[C@H](CS)NC(=O)[C@H](Cc1c[nH]c2ccccc12)NC(=O)CNC(=O)[C@H](Cc1ccccc1)NC(=O)[C@@H](NC(=O)[C@H](CC(C)C)NC(=O)[C@@H]1CCCN1C(=O)[C@H](Cc1ccc(O)cc1)NC(=O)[C@H](CCCNC(=N)N)NC(=O)[C@@H](NC(=O)CNC(=O)[C@@H]1CCCN1C(=O)CNC(=O)[C@@H]1CCCN1C(=O)[C@@H](NC(=O)[C@H](Cc1ccc(O)cc1)NC(=O)[C@H](CC(N)=O)NC(=O)[C@H](CCC(N)=O)NC(=O)[C@H](Cc1c[nH]c2ccccc12)NC(=O)[C@H](CC(=O)O)NC(=O)[C@@H]1CCCN1C(=O)[C@H](Cc1ccccc1)NC(=O)[C@H](Cc1ccc(O)cc1)NC(=O)CNC(=O)[C@H](CCC(N)=O)NC(=O)[C@@H](N)[C@@H](C)O)[C@@H](C)O)C(C)C)[C@@H](C)O)C(C)C)C(N)=O) [NEF 117] | 4.67 | 81 | quantitative | 109.08-116.72% | slightly opalescent solution |
